Data as given in patent publication WO2009150539A2 (dated 2009).
Several values for one entry are separate records, joined by “and”; a condition that tells them apart may be missing. Identical values can stand only once.

What was measured:
[1] = target: T1, AahII toxin of Androctonus australis hector (Androctonus australis hector, UniProt P01484 20-83); assay: cell-based or functional assay
T1 sequence: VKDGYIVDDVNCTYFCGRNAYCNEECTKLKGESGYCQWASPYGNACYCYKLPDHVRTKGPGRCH

[2] = target: T1, AahII toxin of Androctonus australis …; assay: SPR (BIAcore), AahII immobilised on CM5 chip, Nb in mobile phase
[3] = target: T1, AahII toxin of Androctonus australis …; assay: phage ELISA on coated AahII, Nb displayed on phage
[4] = target: AahI' toxin of Androctonus australis hector (Androctonus australis hector) (UniProt P01479); assay: cell-based or functional assay
Chain of AahI' toxin of Androctonus australis hector (Androctonus australis hector) (P01479 20-82): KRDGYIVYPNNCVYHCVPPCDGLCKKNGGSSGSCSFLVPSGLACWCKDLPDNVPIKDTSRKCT

B1: NbAahII20 (VHH)
VHH: QVQLQESGGGLVQPGGSLRLSCTASGFDFSRYVMSWVRQAPGKDFEWISGIMPLSSAGTTYADAVKGRFTISRDNAKNTLYLQLNNLKTEDTAIYYCAKGVYTTYIGGARGQGTQVTVSS
notes: Purified from E. coli periplasm with His6; also called NbAahIKO (I); cluster I
[1]
  NC = (LD50 with Nb - LD50 without Nb)/Nb; i.c.v.; AahII:Nb 1:4: 27000 LD50/mg and 400 LD50/nmol
  Survivors/Injected mice; i.c.v.; AahII:Nb 1:2; 2 LD50/mouse; 24 ng Nb/mouse: 3 survivors of 4 mice
  Survivors/Injected mice; i.c.v.; AahII:Nb 1:2; 4 LD50/mouse; 48 ng Nb/mouse: 2 survivors of 4 mice
  Survivors/Injected mice; i.c.v.; AahII:Nb 1:4; 3 LD50/mouse; 72 ng Nb/mouse: 2 survivors of 4 mice
[2]
  Kd: 0.26 nM
  koff: 0.00213 s⁻¹
  kon: 8.18e+06 M⁻¹ s⁻¹

B2: NbAahII3 (VHH)
VHH: QVQLVESGGGSVQAGGSLRLACAASGVTLSDYCMGWFRQAPGKEREGVAAIKDRGSISYYADSVKGRFTISKDNAKNTMYLQMNRLNSEDTAMYYCAVTRNSCLGLAKFRPPSYNYWGQGTQVTVSS
notes: also called NbAahID; NbAahIB
[3]
  binding result: binds

B3: NbAahII10 (VHH)
VHH: QVQLVESGGGSVQAGGSLKLSCAASGYFYSSNYCLGWFRQAPGKEREGVAQINIAPGRIYYADSVKGRFTISRDNAKNTVYLQMDSLKPEDTAIYYCASTAGNMYYGLRGPADFDYWGQGTQVTVSS
notes: also called NbAahIIlO; NbAahII lO
[1]
  NC = (LD50 with Nb - LD50 without Nb)/Nb; i.c.v.; AahII:Nb 1:4: 37000 LD50/mg and 555 LD50/nmol
  Survivors/Injected mice; i.c.v.; AahII:Nb 1:4; 2 LD50/mouse; 48 ng Nb/mouse: 4 survivors of 4 mice
  Survivors/Injected mice; i.c.v.; AahII:Nb 1:4; 3 LD50/mouse; 72 ng Nb/mouse: 4 survivors of 4 mice
  neutralizing capacity, i.c.v., toxin/Nb ratio 1/4: ~37500 LD50/mg
[2]
  Kd: 0.49 nM
  koff: 0.000569 s⁻¹
  kon: 1.14e+06 M⁻¹ s⁻¹

B4: AahI'F12 (VHH)
VHH: QVQLQESGGGSVQAGGSLRLSCVGPGISYVYNRVGWFRQAPGKESEVVAAFYTSNTSALYYAAQVKGRFTISQGNAKNTVYLQMNNLKPEDSGKYYCATANGGLLSDARGYRHYGQGTQVTVSS
[4]
  surviving mice; i.c.v.; 4 LD50 AahI'; ratio 1:2 (survivors of 4 mice): 4
  surviving mice; i.c.v.; 20 LD50 AahI'; ratio 1:2 (survivors of 4 mice): 4
  surviving mice; i.c.v.; 23 LD50 AahI'; ratio 1:2 (survivors of 4 mice): 4
  surviving mice; i.c.v.; 26 LD50 AahI'; ratio 1:2 (survivors of 4 mice): 4
  surviving mice; i.c.v.; 29 LD50 AahI'; ratio 1:2 (survivors of 4 mice): 4
  surviving mice; i.c.v.; 33 LD50 AahI'; ratio 1:2 (survivors of 4 mice): 4
  surviving mice; i.c.v.; 37 LD50 AahI'; ratio 1:2 (survivors of 4 mice): 4
  surviving mice; i.c.v.; 47 LD50 AahI'; ratio 1:2 (survivors of 4 mice): 4
  surviving mice; i.c.v.; 60 LD50 AahI'; ratio 1:2 (survivors of 4 mice): 4
  surviving mice; i.c.v.; 70 LD50 AahI'; ratio 1:2 (survivors of 4 mice): 4
  surviving mice; i.c.v.; 75 LD50 AahI'; ratio 1:2 (survivors of 4 mice): 4
  surviving mice; i.c.v.; 80 LD50 AahI'; ratio 1:2 (survivors of 4 mice): 4
  surviving mice; i.c.v.; 90 LD50 AahI'; ratio 1:2 (survivors of 4 mice): 4
  surviving mice; i.c.v.; 95 LD50 AahI'; ratio 1:1 (survivors of 4 mice): 2
  surviving mice; i.c.v.; 95 LD50 AahI'; ratio 1:2 (survivors of 4 mice): 4
  surviving mice; i.c.v.; 100 LD50 AahI'; ratio 1:1 (survivors of 4 mice): 2
  surviving mice; i.c.v.; 100 LD50 AahI'; ratio 1:2 (survivors of 4 mice): 4

B5: AahI'A19 (VHH)
VHH: QVQLQESGGGSVQAGGSLRLSCVASEYSECIGWFRQAPGKEREGVAAIEKVLGQRWRADSIHDRITISQDKAKNTVYLQMTSLKIDDTAMYYCAAKGRGCMSQPTTGYLSWGQGTQVTVSS
[4]
  surviving mice; i.c.v.; 4 LD50 AahI'; ratio 1:2 (survivors of 4 mice): 4

B6: NbAahII38 (VHH)
VHH: DVQLVESGGGLVQPGGSLRLSCAASGFTFSNYVMSWVRQAPGKGLEWVSGINHGGGIQDYADSVKGRFTISRDNAKNTLYLQLNSLKIEDTAMYYCVRASHYRDYGPTIYSWGQGTQVTVSS
notes: also called cluster H
[1]
  Survivors/Injected mice; i.c.v.; AahII:Nb 1:2; 2 LD50/mouse; 24 ng Nb/mouse: 1 survivors of 4 mice
  Survivors/Injected mice; i.c.v.; AahII:Nb 1:2; 3 LD50/mouse; 36 ng Nb/mouse: 0 survivors of 4 mice
[2]
  Kd: 76 nM
  koff: 0.000781 s⁻¹
  kon: 10200 M⁻¹ s⁻¹

B7: NbAahII05 (VHH)
VHH: QVQLQESGGGSVQAGGSLRLSCAASGYTCTKFNMGWYRQAPGKQREFVASIRRDSTIYYGDSVKGRFTISQDNAKNMVYLQMTSLKPEDSAMYYCSTRCLTSSVPYWGQGTQVTVSS
notes: also called cluster G
[1]
  Survivors/Injected mice; i.c.v.; AahII:Nb 1:2; 2 LD50/mouse; 24 ng Nb/mouse: 4 survivors of 4 mice
  Survivors/Injected mice; i.c.v.; AahII:Nb 1:2; 3 LD50/mouse; 36 ng Nb/mouse: 4 survivors of 4 mice
  Survivors/Injected mice; i.c.v.; AahII:Nb 1:2; 4 LD50/mouse; 48 ng Nb/mouse: 1 survivors of 4 mice
  Survivors/Injected mice; i.c.v.; AahII:Nb 1:4; 3 LD50/mouse; 72 ng Nb/mouse: 4 survivors of 4 mice
[2]
  Kd: 0.67 nM
  koff: 0.00186 s⁻¹
  kon: 2.77e+06 M⁻¹ s⁻¹

B8: AahI'D10 (VHH)
VHH: QVQLQESGGGSVQAGGSLRLSCAASVDTFSTTCMGWFRQTPGKEREGVAVIKTFYAGTVYADSVKGRFTISQDIAKNTVYLQMNSLNPEDTAMYYCAATGGPYNGRCPLASQPFRYWTQGTQVTVSS
[4]
  surviving mice; i.c.v.; 4 LD50 AahI'; ratio 1:2 (survivors of 4 mice): 3

B9: NbAahII12 (VHH)
VHH: QVQLVESGGGLVQPGGSLRLSCAASGFSFNIYAMSWVRQAPGKQFEWVSGIHPNGRSTYYTDSVKGRFTISRDNAKNTLYLQLDSLKTEDTAMYYCAKGVLTKYVGGARGQGTQVTVSS
notes: Purified from E. coli periplasm with His6; also called cluster I
[1]
  NC = (LD50 with Nb - LD50 without Nb)/Nb; i.c.v.; AahII:Nb 1:4: 27000 LD50/mg and 400 LD50/nmol
  Survivors/Injected mice; i.c.v.; AahII:Nb 1:4; 2 LD50/mouse; 48 ng Nb/mouse: 3 survivors of 4 mice
  Survivors/Injected mice; i.c.v.; AahII:Nb 1:4; 3 LD50/mouse; 72 ng Nb/mouse: 2 survivors of 4 mice
[2]
  Kd: 0.28 nM
  koff: 0.0016 s⁻¹
  kon: 5.63e+06 M⁻¹ s⁻¹

B10: NbAahII19 (VHH)
VHH: QVQLQESGGGLVQPGGSLRLSCAASGFSFNIYAMSWVRQAPGKQFEWVSGIHPDGRSTYYTDSVKGRFTISRDNAKNTLYLQLDSLKTEDTAMYYCAKGVLTKYVGSARGQGTQVTVSS
notes: as for B9
[1]
  Survivors/Injected mice; i.c.v.; AahII:Nb 1:4; 2 LD50/mouse; 48 ng Nb/mouse: 4 survivors of 4 mice
  Survivors/Injected mice; i.c.v.; AahII:Nb 1:4; 3 LD50/mouse; 72 ng Nb/mouse: 4 survivors of 4 mice
[2]
  Kd: 2.39 nM
  koff: 0.013 s⁻¹
  kon: 5.46e+06 M⁻¹ s⁻¹

B11: AahI'C13 (VHH)
VHH: QVQLQESGGGSVQPGGSLRLSCAASGYIYSRYCMGWFRQAPGKEREGVAVISGYGTTHFADSAKGRFTISQDKAKNMVYLQMNSLRPEDTAIYYCAVRQWDCYSANWPQTHTYDYWGQGTQVTVSS
[4]
  surviving mice; i.c.v.; 4 LD50 AahI'; ratio 1:2 (survivors of 4 mice): 2

B12: NbAahII36 (VHH)
VHH: QVQLVESGGGSVQAGGSLRLSCAASGYTFSNYRMGWFRQAPGKECELVSTILTDGSTNYADSVKGRFTISRDNAKNTVYLLMNNLKAEDTAVYYCAAGNSRKGYLRRCGGTDFGYWGQGTQVTVSS
notes: also called cluster C
[1]
  Survivors/Injected mice; i.c.v.; AahII:Nb 1:2; 2 LD50/mouse; 24 ng Nb/mouse: 1 survivors of 4 mice
  Survivors/Injected mice; i.c.v.; AahII:Nb 1:2; 3 LD50/mouse; 36 ng Nb/mouse: 0 survivors of 4 mice
[2]
  Kd: 0.67 nM
  koff: 0.00137 s⁻¹
  kon: 2.04e+06 M⁻¹ s⁻¹

B13: NbAahII16 (VHH)
VHH: HVQLVESGGGSVQAGGSLRLSCAASGYTFSNYRMGWFRRAPGKECELVSTILTDGSTNYADSVKGRFTISRDNAKNTVYLLMNNLKAEDTAVYYCAAGNSRKGYLRRCGGTDFGYWGQGTQVTVSS
notes: also called NbAahlllό
[3]
  binding result: binds

B14: AahI'D11 (VHH)
VHH: QVQLQESGGGSVEAGGSLRLSCATSGFTFSRYAMYWFRQAPGMECEWVSTIHTNGDTYYANSLKGRFTGSRDNAKNTAYLQMNSLKPEDTAVYYCHAPLNDGSTPTHICSRAGSYGYWGQGTQVTVSS
[4]
  surviving mice; i.c.v.; 4 LD50 AahI'; ratio 1:2 (survivors of 4 mice): 2

B15: NbAahII18 (VHH)
VHH: QVQLQESGGGSVQAGGSLRLSCAASGDSYSNYYMAWFRQAPGKEREGVAHINRSGRITLYADSVKGRFTMSRDNAKNTVYLQMNSLRPEDTAIYYCAAGVRTHMPPLASYGFDYWGQGTQVTVSS
notes: also called NbAahlllδ; NbAahll l δ
[1]
  NC = (LD50 with Nb - LD50 without Nb)/Nb; i.c.v.; AahII:Nb 1:4: 27000 LD50/mg and 400 LD50/nmol
  Survivors/Injected mice; i.c.v.; AahII:Nb 1:2; 3 LD50/mouse; 36 ng Nb/mouse: 1 survivors of 4 mice
  Survivors/Injected mice; i.c.v.; AahII:Nb 1:2; 4 LD50/mouse; 48 ng Nb/mouse: 0 survivors of 4 mice
  Survivors/Injected mice; i.c.v.; AahII:Nb 1:4; 2 LD50/mouse; 48 ng Nb/mouse: 2 survivors of 4 mice
  Survivors/Injected mice; i.c.v.; AahII:Nb 1:4; 3 LD50/mouse; 72 ng Nb/mouse: 2 survivors of 4 mice
[2]
  Kd: 0.18 nM
  koff: 0.0016 s⁻¹
  kon: 8.95e+06 M⁻¹ s⁻¹

B16: NbAahII17 (VHH)
VHH: DVQLVESGGGSVQAGGSLRLSCAASGVTLNNYCVGWFRQAPGKEREGVAAFKSGGSFTYYADSVKGRFTISKDNAKNTMYLQMNSLNSDDTAMYYCAVTRNSCLGLAKFRPSSYNYWGQGTQVTVSS
notes: also called cluster D
[1]
  Survivors/Injected mice; i.c.v.; AahII:Nb 1:2; 2 LD50/mouse; 24 ng Nb/mouse: 0 survivors of 4 mice
[2]
  Kd: 0.61 nM
  koff: 0.00376 s⁻¹
  kon: 6.12e+06 M⁻¹ s⁻¹

B17: NbAahII32 (VHH)
VHH: QVQLQESGGGSVQAGGSLRLSCAASGLTLNNYCIGWFRQAPGKEREGVAALKSGGSFTYYADSVKGRFTISRDNAKNTMYLQMSSLNSEDTAMYYCAVTRNSCLGLAKFRPSSYNYWGQGTQVTVSS
[3]
  binding result: binds

B18: NbAahII11 (VHH)
VHH: QVQLQESGGGSVQAGGSLRLSCAASGLTLNNYCIGWFRQAPGKEREGVAALKSGGSFTYYADSVKGRFTISRDNAKNTMYLQMSSLNSEDTAMYYCAVTRNSCLGLAKFRPSSYNYWGQGTQVTVSS
notes: also called NbAaWI 1 1; NbAahIIl l
[3]
  binding result: binds

B19: NbAahII6 (VHH)
VHH: QVQLQESGGGSVQAGGSLRLSCAASGATLNNYCLGWFRQAPGKEREGVAAFKSGGSFTYYADSVKGRFTISKDNAKNTMYLQMNSLNSEDTAMYYCAVTRHSCLGLAKFRPSSYNYWGQGTQVTVSS
notes: also called NbAahllό
[3]
  binding result: binds
